# Laboratory results: the RNAGym collection of RNA variant scans (doi:10.7554/elife.80360)
# B1: Hammerhead Ribozyme (parent)
# chain: ACCGGAUGUGCUUUCCGGUCUGAUGAGUCCGUGAGGACGAAACAG
# Variants of: B1
# Test: self-cleavage, relative activity (ratio to wild type); higher = more cleavage; co-transcriptional
row,Variant,self-cleavage
1,G17A A37G,0.604
2,G17A A37U,0.528
3,G17A A40C,0.347
4,G17A A40G,0.361
5,G17A A40U,0.354
6,G17A A41C,0.259
7,G17A A41G,0.332
8,G17A A41U,0.347
9,G17A A42C,0.341
10,G17A A42G,0.327
11,G17A A42U,0.396
12,G17A A44C,0.513
13,G17A A44G,0.742
14,G17A A44U,0.449
15,G17A C20A,0.327
16,G17A C20G,0.367
17,G17A C20U,0.442
18,G17A C29A,0.441
19,G17A C29G,0.462
20,G17A C29U,0.68
21,G17A C30A,0.561
22,G17A C30G,0.476
23,G17A C30U,0.622
24,G17A C38A,0.488

row,Variant,self-cleavage
1,G17A C38G,0.478
2,G17A C38U,0.586
3,G17A C43A,0.372
4,G17A C43G,0.441
5,G17A C43U,0.335
6,G17A G18A,0.294
7,G17A G18C,0.341
8,G17A G18U,0.318
9,G17A G22A,0.315
10,G17A G22C,0.319
11,G17A G22U,0.345
12,G17A G25A,0.353
13,G17A G25C,0.321
14,G17A G25U,0.372
15,G17A G27A,0.51
16,G17A G27C,0.399
17,G17A G27U,0.495
18,G17A G31A,0.875
19,G17A G31C,0.652
20,G17A G31U,0.788
21,G17A G33A,0.794
22,G17A G33C,0.713
23,G17A G33U,0.751
24,G17A G35A,0.623

row,Variant,self-cleavage
1,G17A G35C,0.548
2,G17A G35U,0.455
3,G17A G36A,0.442
4,G17A G36C,0.263
5,G17A G36U,0.418
6,G17A G39A,0.326
7,G17A G39C,0.333
8,G17A G39U,0.316
9,G17A G45A,0.413
10,G17A G45C,0.385
11,G17A G45U,0.411
12,G17A U19A,0.386
13,G17A U19C,0.23
14,G17A U19G,0.332
15,G17A U21A,0.351
16,G17A U21C,0.294
17,G17A U21G,0.39
18,G17A U24A,0.704
19,G17A U24C,0.88
20,G17A U24G,0.592
21,G17A U28A,0.42
22,G17A U28C,0.331
23,G17A U28G,0.567
24,G17A U32A,0.62

row,Variant,self-cleavage
1,G17A U32C,0.812
2,G17A U32G,0.613
3,G17C,0.575
4,G17C A23C,0.327
5,G17C A23G,0.417
6,G17C A23U,0.326
7,G17C A26C,0.355
8,G17C A26G,0.353
9,G17C A26U,0.326
10,G17C A34C,0.438
11,G17C A34G,0.436
12,G17C A34U,0.501
13,G17C A37C,0.505
14,G17C A37G,0.355
15,G17C A37U,0.359
16,G17C A40C,0.328
17,G17C A40G,0.373
18,G17C A40U,0.3
19,G17C A41C,0.272
20,G17C A41G,0.388
21,G17C A41U,0.318
22,G17C A42C,0.316
23,G17C A42G,0.335
24,G17C A42U,0.284

row,Variant,self-cleavage
1,G17C A44C,0.418
2,G17C A44G,0.664
3,G17C A44U,0.414
4,G17C C20A,0.313
5,G17C C20G,0.279
6,G17C C20U,0.331
7,G17C C29A,0.419
8,G17C C29G,0.349
9,G17C C29U,0.542
10,G17C C30A,0.458
11,G17C C30G,0.398
12,G17C C30U,0.545
13,G17C C38A,0.451
14,G17C C38G,0.452
15,G17C C38U,0.453
16,G17C C43A,0.319
17,G17C C43G,0.311
18,G17C C43U,0.404
19,G17C G18A,0.361
20,G17C G18C,0.347
21,G17C G18U,0.455
22,G17C G22A,0.274
23,G17C G22C,0.326
24,G17C G22U,0.284

row,Variant,self-cleavage
1,G17C G25A,0.362
2,G17C G25C,0.403
3,G17C G25U,0.296
4,G17C G27A,0.446
5,G17C G27C,0.354
6,G17C G27U,0.349
7,G17C G31A,0.699
8,G17C G31C,0.563
9,G17C G31U,0.713
10,G17C G33A,0.564
11,G17C G33C,0.458
12,G17C G33U,0.623
13,G17C G35A,0.535
14,G17C G35C,0.403
15,G17C G35U,0.371
16,G17C G36A,0.361
17,G17C G36C,0.246
18,G17C G36U,0.392
19,G17C G39A,0.342
20,G17C G39C,0.291
21,G17C G39U,0.33
22,G17C G45A,0.366
23,G17C G45C,0.4
24,G17C G45U,0.394

row,Variant,self-cleavage
1,G17C U19A,0.335
2,G17C U19C,0.332
3,G17C U19G,0.337
4,G17C U21A,0.306
5,G17C U21C,0.275
6,G17C U21G,0.352
7,G17C U24A,0.493
8,G17C U24C,0.457
9,G17C U24G,0.462
10,G17C U28A,0.391
11,G17C U28C,0.276
12,G17C U28G,0.395
13,G17C U32A,0.497
14,G17C U32C,0.444
15,G17C U32G,0.545
16,G17U,0.855
17,G17U A23C,0.32
18,G17U A23G,0.382
19,G17U A23U,0.35
20,G17U A26C,0.448
21,G17U A26G,0.33
22,G17U A26U,0.527
23,G17U A34C,0.46
24,G17U A34G,0.604

row,Variant,self-cleavage
1,G17U A34U,0.531
2,G17U A37C,0.688
3,G17U A37G,0.568
4,G17U A37U,0.586
5,G17U A40C,0.449
6,G17U A40G,0.388
7,G17U A40U,0.376
8,G17U A41C,0.365
9,G17U A41G,0.375
10,G17U A41U,0.327
11,G17U A42C,0.394
12,G17U A42G,0.333
13,G17U A42U,0.369
14,G17U A44C,0.495
15,G17U A44G,0.877
16,G17U A44U,0.469
17,G17U C20A,0.422
18,G17U C20G,0.359
19,G17U C20U,0.501
20,G17U C29A,0.523
21,G17U C29G,0.591
22,G17U C29U,0.748
23,G17U C30A,0.583
24,G17U C30G,0.59

row,Variant,self-cleavage
1,G17U C30U,0.755
2,G17U C38A,0.465
3,G17U C38G,0.539
4,G17U C38U,0.758
5,G17U C43A,0.356
6,G17U C43G,0.291
7,G17U C43U,0.379
8,G17U G18A,0.419
9,G17U G18C,0.503
10,G17U G18U,0.442
11,G17U G22A,0.368
12,G17U G22C,0.314
13,G17U G22U,0.359
14,G17U G25A,0.347
15,G17U G25C,0.319
16,G17U G25U,0.37
17,G17U G27A,0.643
18,G17U G27C,0.486
19,G17U G27U,0.513
20,G17U G31A,0.918
21,G17U G31C,0.86
22,G17U G31U,0.834
23,G17U G33A,0.862
24,G17U G33C,0.851

row,Variant,self-cleavage
1,G17U G33U,0.9
2,G17U G35A,0.642
3,G17U G35C,0.405
4,G17U G35U,0.454
5,G17U G36A,0.621
6,G17U G36C,0.336
7,G17U G36U,0.46
8,G17U G39A,0.328
9,G17U G39C,0.348
10,G17U G39U,0.357
11,G17U G45A,0.436
12,G17U G45C,0.513
13,G17U G45U,0.589
14,G17U U19A,0.361
15,G17U U19C,0.397
16,G17U U19G,0.257
17,G17U U21A,0.591
18,G17U U21C,0.306
19,G17U U21G,0.387
20,G17U U24A,0.781
21,G17U U24C,0.697
22,G17U U24G,0.704
23,G17U U28A,0.58
24,G17U U28C,0.495

row,Variant,self-cleavage
1,G17U U28G,0.513
2,G17U U32A,0.764
3,G17U U32C,0.633
4,G17U U32G,0.73
5,G18A,0.831
6,G18A A23C,0.355
7,G18A A23G,0.361
8,G18A A23U,0.345
9,G18A A26C,0.366
10,G18A A26G,0.331
11,G18A A26U,0.423
12,G18A A34C,0.537
13,G18A A34G,0.562
14,G18A A34U,0.515
15,G18A A37C,0.611
16,G18A A37G,0.676
17,G18A A37U,0.55
18,G18A A40C,0.308
19,G18A A40G,0.351
20,G18A A40U,0.288
21,G18A A41C,0.328
22,G18A A41G,0.37
23,G18A A41U,0.358
24,G18A A42C,0.376

row,Variant,self-cleavage
1,G18A A42G,0.347
2,G18A A42U,0.338
3,G18A A44C,0.479
4,G18A A44G,0.702
5,G18A A44U,0.433
6,G18A C20A,0.326
7,G18A C20G,0.367
8,G18A C20U,0.312
9,G18A C29A,0.44
10,G18A C29G,0.537
11,G18A C29U,0.574
12,G18A C30A,0.607
13,G18A C30G,0.381
14,G18A C30U,0.783
15,G18A C38A,0.596
16,G18A C38G,0.453
17,G18A C38U,0.531
18,G18A C43A,0.299
19,G18A C43G,0.28
20,G18A C43U,0.285
21,G18A G22A,0.276
22,G18A G22C,0.417
23,G18A G22U,0.373
24,G18A G25A,0.281

row,Variant,self-cleavage
1,G18A G25C,0.332
2,G18A G25U,0.348
3,G18A G27A,0.519
4,G18A G27C,0.43
5,G18A G27U,0.393
6,G18A G31A,1.05
7,G18A G31C,0.74
8,G18A G31U,0.938
9,G18A G33A,0.873
10,G18A G33C,0.635
11,G18A G33U,0.726
12,G18A G35A,0.536
13,G18A G35C,0.479
14,G18A G35U,0.594
15,G18A G36A,0.544
16,G18A G36C,0.299
17,G18A G36U,0.496
18,G18A G39A,0.339
19,G18A G39C,0.326
20,G18A G39U,0.303
21,G18A G45A,0.354
22,G18A G45C,0.446
23,G18A G45U,0.469
24,G18A U19A,0.367

row,Variant,self-cleavage
1,G18A U19C,0.402
2,G18A U19G,0.359
3,G18A U21A,0.401
4,G18A U21C,0.396
5,G18A U21G,0.404
6,G18A U24A,0.748
7,G18A U24C,0.757
8,G18A U24G,0.678
9,G18A U28A,0.475
10,G18A U28C,0.388
11,G18A U28G,0.542
12,G18A U32A,0.778
13,G18A U32C,0.731
14,G18A U32G,0.744
15,G18C,0.62
16,G18C A23C,0.298
17,G18C A23G,0.379
18,G18C A23U,0.32
19,G18C A26C,0.354
20,G18C A26G,0.319
21,G18C A26U,0.334
22,G18C A34C,0.36
